# Starred links: 1 amine or outer side, 2 acyl side, 3 side chain; linkers in the order of their positions; H or OH if unused. Positions of bridges follow the written chain, without caps; N, C: chain ends. *: point of attachment. C20 diacid = O=C(O)CCCCCCCCCCCCCCCCCCC(=O)*; γGlu = O=C(O)[C@H](CCC(=O)[*:2])N[*:1]
# T1: human amylin 3(a) receptor (human calcitonin receptor + RAMP-3) (human, UniProt P30988 25-474; O60896 24-148)
# T1 sequence (looked up) 1: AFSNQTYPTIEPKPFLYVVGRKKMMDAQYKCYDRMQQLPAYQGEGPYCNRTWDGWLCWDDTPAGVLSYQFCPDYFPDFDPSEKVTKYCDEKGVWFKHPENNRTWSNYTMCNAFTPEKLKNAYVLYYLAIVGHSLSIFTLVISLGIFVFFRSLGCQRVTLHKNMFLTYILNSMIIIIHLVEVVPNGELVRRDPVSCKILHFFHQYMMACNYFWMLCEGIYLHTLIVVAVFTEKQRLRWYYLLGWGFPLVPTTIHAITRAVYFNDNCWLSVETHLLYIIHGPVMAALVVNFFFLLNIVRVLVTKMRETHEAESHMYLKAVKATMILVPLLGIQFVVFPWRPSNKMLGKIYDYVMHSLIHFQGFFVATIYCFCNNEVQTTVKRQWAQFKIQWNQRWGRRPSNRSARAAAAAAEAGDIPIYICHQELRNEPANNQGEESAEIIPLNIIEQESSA
# T1 sequence (looked up) 2: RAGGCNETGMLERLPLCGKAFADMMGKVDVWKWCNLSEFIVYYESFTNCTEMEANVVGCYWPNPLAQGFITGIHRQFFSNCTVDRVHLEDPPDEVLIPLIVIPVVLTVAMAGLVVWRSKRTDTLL
# T2: human calcitonin (a) receptor (human, UniProt P30988 25-474)
# T2 sequence (looked up): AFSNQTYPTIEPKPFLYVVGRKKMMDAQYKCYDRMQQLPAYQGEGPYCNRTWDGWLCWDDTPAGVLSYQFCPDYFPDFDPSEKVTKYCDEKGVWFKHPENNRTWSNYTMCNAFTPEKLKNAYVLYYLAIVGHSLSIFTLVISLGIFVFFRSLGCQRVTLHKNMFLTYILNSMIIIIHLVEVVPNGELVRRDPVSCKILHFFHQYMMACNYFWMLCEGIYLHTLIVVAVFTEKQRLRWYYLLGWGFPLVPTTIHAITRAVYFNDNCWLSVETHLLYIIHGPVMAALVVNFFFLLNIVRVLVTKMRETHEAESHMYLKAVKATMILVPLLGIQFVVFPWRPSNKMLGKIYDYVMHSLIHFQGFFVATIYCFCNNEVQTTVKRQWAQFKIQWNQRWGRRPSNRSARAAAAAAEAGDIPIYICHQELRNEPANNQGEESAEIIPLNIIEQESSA
# How the values were obtained:
# [1] = biological target: T1, human amylin 3(a) receptor (human …); assay: cell-based or functional assay
# [2] = biological target: T2, human calcitonin (a) receptor; assay: cell-based or functional assay
Binder,Amylin receptor human EC50 [1],CTa receptor human EC50 [2]
{C20 diacid-γGlu}-HHHCNTATCATQRLAEFLHHSSNNFGPILPHTNVGSHTY-NH2 (disulfide 4-9; SMILES CC[C@H](C)[C@H](NC(=O)[C@@H]1CCCN1C(=O)CNC(=O)[C@H](Cc1ccccc1)NC(=O)[C@H](CC(N)=O)NC(=O)[C@H](CC(N)=O)NC(=O)[C@H](CO)NC(=O)[C@H](CO)NC(=O)[C@H](Cc1c[nH]cn1)NC(=O)[C@H](Cc1c[nH]cn1)NC(=O)[C@H](CC(C)C)NC(=O)[C@H](Cc1ccccc1)NC(=O)[C@H](CCC(=O)O)NC(=O)[C@H](C)NC(=O)[C@H](CC(C)C)NC(=O)[C@H](CCCNC(=N)N)NC(=O)[C@H](CCC(N)=O)NC(=O)[C@@H](NC(=O)[C@H](C)NC(=O)[C@@H]1CSSC[C@H](NC(=O)[C@H](Cc2c[nH]cn2)NC(=O)[C@H](Cc2c[nH]cn2)NC(=O)[C@H](Cc2c[nH]cn2)NC(=O)CC[C@H](NC(=O)CCCCCCCCCCCCCCCCCCC(=O)O)C(=O)O)C(=O)N[C@@H](CC(N)=O)C(=O)N[C@@H]([C@@H](C)O)C(=O)N[C@@H](C)C(=O)N[C@@H]([C@@H](C)O)C(=O)N1)[C@@H](C)O)C(=O)N[C@@H](CC(C)C)C(=O)N1CCC[C@H]1C(=O)N[C@@H](Cc1c[nH]cn1)C(=O)N[C@H](C(=O)N[C@@H](CC(N)=O)C(=O)N[C@H](C(=O)NCC(=O)N[C@@H](CO)C(=O)N[C@@H](Cc1c[nH]cn1)C(=O)N[C@H](C(=O)N[C@@H](Cc1ccc(O)cc1)C(N)=O)[C@@H](C)O)C(C)C)[C@@H](C)O),272 pM,198 pM
"{C20 diacid-γGlu}-ECNTATCATQRLAEFLHRSSNNFGPILPPTNVGSNTY-NH2 (disulfide 2-7; SMILES CC[C@H](C)[C@H](NC(=O)[C@@H]1CCCN1C(=O)CNC(=O)[C@H](Cc1ccccc1)NC(=O)[C@H](CC(N)=O)NC(=O)[C@H](CC(N)=O)NC(=O)[C@H](CO)NC(=O)[C@H](CO)NC(=O)[C@H](CCCNC(=N)N)NC(=O)[C@H](Cc1c[nH]cn1)NC(=O)[C@H](CC(C)C)NC(=O)[C@H](Cc1ccccc1)NC(=O)[C@H](CCC(=O)O)NC(=O)[C@H](C)NC(=O)[C@H](CC(C)C)NC(=O)[C@H](CCCNC(=N)N)NC(=O)[C@H](CCC(N)=O)NC(=O)[C@@H](NC(=O)[C@H](C)NC(=O)[C@@H]1CSSC[C@H](NC(=O)[C@H](CCC(=O)O)NC(=O)CC[C@H](NC(=O)CCCCCCCCCCCCCCCCCCC(=O)O)C(=O)O)C(=O)N[C@@H](CC(N)=O)C(=O)N[C@@H]([C@@H](C)O)C(=O)N[C@@H](C)C(=O)N[C@@H]([C@@H](C)O)C(=O)N1)[C@@H](C)O)C(=O)N[C@@H](CC(C)C)C(=O)N1CCC[C@H]1C(=O)N1CCC[C@H]1C(=O)N[C@H](C(=O)N[C@@H](CC(N)=O)C(=O)N[C@H](C(=O)NCC(=O)N[C@@H](CO)C(=O)N[C@@H](CC(N)=O)C(=O)N[C@H](C(=O)N[C@@H](Cc1ccc(O)cc1)C(N)=O)[C@@H](C)O)C(C)C)[C@@H](C)O) [N-alpha-[(S)-4-Carboxy-4-(19-carboxynonadecanoylamino)butyryl]-[Glu1,Glu14,His17,Arg18]-pramlintide]",174 pM,753 pM
{C20 diacid-γGlu}-HHHCHTATCATQRLAEFLHHSSNNFGPILPHTNVGSHTY-NH2 (disulfide 4-9; SMILES CC[C@H](C)[C@H](NC(=O)[C@@H]1CCCN1C(=O)CNC(=O)[C@H](Cc1ccccc1)NC(=O)[C@H](CC(N)=O)NC(=O)[C@H](CC(N)=O)NC(=O)[C@H](CO)NC(=O)[C@H](CO)NC(=O)[C@H](Cc1c[nH]cn1)NC(=O)[C@H](Cc1c[nH]cn1)NC(=O)[C@H](CC(C)C)NC(=O)[C@H](Cc1ccccc1)NC(=O)[C@H](CCC(=O)O)NC(=O)[C@H](C)NC(=O)[C@H](CC(C)C)NC(=O)[C@H](CCCNC(=N)N)NC(=O)[C@H](CCC(N)=O)NC(=O)[C@@H](NC(=O)[C@H](C)NC(=O)[C@@H]1CSSC[C@H](NC(=O)[C@H](Cc2c[nH]cn2)NC(=O)[C@H](Cc2c[nH]cn2)NC(=O)[C@H](Cc2c[nH]cn2)NC(=O)CC[C@H](NC(=O)CCCCCCCCCCCCCCCCCCC(=O)O)C(=O)O)C(=O)N[C@@H](Cc2c[nH]cn2)C(=O)N[C@@H]([C@@H](C)O)C(=O)N[C@@H](C)C(=O)N[C@@H]([C@@H](C)O)C(=O)N1)[C@@H](C)O)C(=O)N[C@@H](CC(C)C)C(=O)N1CCC[C@H]1C(=O)N[C@@H](Cc1c[nH]cn1)C(=O)N[C@H](C(=O)N[C@@H](CC(N)=O)C(=O)N[C@H](C(=O)NCC(=O)N[C@@H](CO)C(=O)N[C@@H](Cc1c[nH]cn1)C(=O)N[C@H](C(=O)N[C@@H](Cc1ccc(O)cc1)C(N)=O)[C@@H](C)O)C(C)C)[C@@H](C)O),1030 pM,484 pM
"{C20 diacid-γGlu}-CNTATCATQRLAEFLHHSSNNFGPILPPTNVGSNTY-NH2 (disulfide 1-6; SMILES CC[C@H](C)[C@H](NC(=O)[C@@H]1CCCN1C(=O)CNC(=O)[C@H](Cc1ccccc1)NC(=O)[C@H](CC(N)=O)NC(=O)[C@H](CC(N)=O)NC(=O)[C@H](CO)NC(=O)[C@H](CO)NC(=O)[C@H](Cc1c[nH]cn1)NC(=O)[C@H](Cc1c[nH]cn1)NC(=O)[C@H](CC(C)C)NC(=O)[C@H](Cc1ccccc1)NC(=O)[C@H](CCC(=O)O)NC(=O)[C@H](C)NC(=O)[C@H](CC(C)C)NC(=O)[C@H](CCCNC(=N)N)NC(=O)[C@H](CCC(N)=O)NC(=O)[C@@H](NC(=O)[C@H](C)NC(=O)[C@@H]1CSSC[C@H](NC(=O)CC[C@H](NC(=O)CCCCCCCCCCCCCCCCCCC(=O)O)C(=O)O)C(=O)N[C@@H](CC(N)=O)C(=O)N[C@@H]([C@@H](C)O)C(=O)N[C@@H](C)C(=O)N[C@@H]([C@@H](C)O)C(=O)N1)[C@@H](C)O)C(=O)N[C@@H](CC(C)C)C(=O)N1CCC[C@H]1C(=O)N1CCC[C@H]1C(=O)N[C@H](C(=O)N[C@@H](CC(N)=O)C(=O)N[C@H](C(=O)NCC(=O)N[C@@H](CO)C(=O)N[C@@H](CC(N)=O)C(=O)N[C@H](C(=O)N[C@@H](Cc1ccc(O)cc1)C(N)=O)[C@@H](C)O)C(C)C)[C@@H](C)O) [N-alpha-[(S)-4-Carboxy-4-(19-carboxynonadecanoylamino)butyryl]-[des1,Glu14,His17]-pramlintide]",179 pM,259 pM
"{C20 diacid-γGlu}-ECNTATCATQRLAEFLHHSSNNFGPILPPTNVGSNTY-NH2 (disulfide 2-7; SMILES CC[C@H](C)[C@H](NC(=O)[C@@H]1CCCN1C(=O)CNC(=O)[C@H](Cc1ccccc1)NC(=O)[C@H](CC(N)=O)NC(=O)[C@H](CC(N)=O)NC(=O)[C@H](CO)NC(=O)[C@H](CO)NC(=O)[C@H](Cc1c[nH]cn1)NC(=O)[C@H](Cc1c[nH]cn1)NC(=O)[C@H](CC(C)C)NC(=O)[C@H](Cc1ccccc1)NC(=O)[C@H](CCC(=O)O)NC(=O)[C@H](C)NC(=O)[C@H](CC(C)C)NC(=O)[C@H](CCCNC(=N)N)NC(=O)[C@H](CCC(N)=O)NC(=O)[C@@H](NC(=O)[C@H](C)NC(=O)[C@@H]1CSSC[C@H](NC(=O)[C@H](CCC(=O)O)NC(=O)CC[C@H](NC(=O)CCCCCCCCCCCCCCCCCCC(=O)O)C(=O)O)C(=O)N[C@@H](CC(N)=O)C(=O)N[C@@H]([C@@H](C)O)C(=O)N[C@@H](C)C(=O)N[C@@H]([C@@H](C)O)C(=O)N1)[C@@H](C)O)C(=O)N[C@@H](CC(C)C)C(=O)N1CCC[C@H]1C(=O)N1CCC[C@H]1C(=O)N[C@H](C(=O)N[C@@H](CC(N)=O)C(=O)N[C@H](C(=O)NCC(=O)N[C@@H](CO)C(=O)N[C@@H](CC(N)=O)C(=O)N[C@H](C(=O)N[C@@H](Cc1ccc(O)cc1)C(N)=O)[C@@H](C)O)C(C)C)[C@@H](C)O) [N-alpha-[(S)-4-Carboxy-4-(19-carboxynonadecanoylamino)butyryl]-[Glu1,Glu14,His17]-pramlintide]",377 pM,657 pM
